Source: article PMC10694592, “A conserved core region of the scaffold NEMO is essential for signal-induced conformational change and liquid-liquid phase separation” (The Journal of Biological Chemistry, 2023)

Biological target: FITC-labeled 45-mer peptide derived from the C-terminal region of IKKβ (FITC label (position not given))
Assay: fluorescence polarisation; fluorescence anisotropy binding assay with an FITC-labeled 45-mer peptide of IKKβ and bacterially expressed full-length NEMO proteins; conditions not told here (refs 13, 26)
Details: both partners purified

B1: 7XAla-NEMO (aa 1-419), bacterially expressed (natural protein)
chain: MNRHLWKSQLAEMVQPSGGPAADQDVLGEESPLGKPAMLHLPSEQGAPETLQRALEENQELRDAIRQSNQILRERAEELLHFQASQREEKEFLMAKFQEARKLVERLGLEKLDLKRQKEQALREVEHLKRAQQQMAEDKASVKAQVTSLLGELQESQSRLEAATKEAQALEGRARAASEQARQLESEREALQQQHSVQVDQLRMQGQSVEAALRMERQAASEEKRKLAQLQVAYHQLFQEYDNHIKSSVVGSERKRGMQLEDLKQQLQQAEEALVAKQEVIDKLKEEAEQHKIVMETVPVLKAQADIYKADFQAERQAREKLAEKKELLQEQLEQLQREYSKLKASAQESARIEDMRKRHVEVSQAPLPPAPAYLSSPLALPSQRRSPPEEPPDFCCPKCQYQAPDMDTLQIHVMECIE
B1 was tested, and the Kd was 13 ± 2.9 nM.
